{"source": "paper PMC7696831", "origin": "cited, not measured here", "target": "SARS-CoV spike protein (Severe acute respiratory syndrome coronavirus) (UniProt P59594)"}
{"substance": "angiotensin-converting enzyme 2 (from UniProt Q9BYF1)", "values": [{"measurement": "Kd", "result": 326, "unit": "nM"}]}
